According to PMC3991583 (Nature, 2014):
Where two headings read alike, the source gives them in different places.

Assays:
Assay in all cases: crystal structure
[1] = biological target: T1, AddA subunit of the nuclease-dead AddAB mutant (AddA D1172A) (UniProt P23478 1-1232, D1172A)
T1 sequence: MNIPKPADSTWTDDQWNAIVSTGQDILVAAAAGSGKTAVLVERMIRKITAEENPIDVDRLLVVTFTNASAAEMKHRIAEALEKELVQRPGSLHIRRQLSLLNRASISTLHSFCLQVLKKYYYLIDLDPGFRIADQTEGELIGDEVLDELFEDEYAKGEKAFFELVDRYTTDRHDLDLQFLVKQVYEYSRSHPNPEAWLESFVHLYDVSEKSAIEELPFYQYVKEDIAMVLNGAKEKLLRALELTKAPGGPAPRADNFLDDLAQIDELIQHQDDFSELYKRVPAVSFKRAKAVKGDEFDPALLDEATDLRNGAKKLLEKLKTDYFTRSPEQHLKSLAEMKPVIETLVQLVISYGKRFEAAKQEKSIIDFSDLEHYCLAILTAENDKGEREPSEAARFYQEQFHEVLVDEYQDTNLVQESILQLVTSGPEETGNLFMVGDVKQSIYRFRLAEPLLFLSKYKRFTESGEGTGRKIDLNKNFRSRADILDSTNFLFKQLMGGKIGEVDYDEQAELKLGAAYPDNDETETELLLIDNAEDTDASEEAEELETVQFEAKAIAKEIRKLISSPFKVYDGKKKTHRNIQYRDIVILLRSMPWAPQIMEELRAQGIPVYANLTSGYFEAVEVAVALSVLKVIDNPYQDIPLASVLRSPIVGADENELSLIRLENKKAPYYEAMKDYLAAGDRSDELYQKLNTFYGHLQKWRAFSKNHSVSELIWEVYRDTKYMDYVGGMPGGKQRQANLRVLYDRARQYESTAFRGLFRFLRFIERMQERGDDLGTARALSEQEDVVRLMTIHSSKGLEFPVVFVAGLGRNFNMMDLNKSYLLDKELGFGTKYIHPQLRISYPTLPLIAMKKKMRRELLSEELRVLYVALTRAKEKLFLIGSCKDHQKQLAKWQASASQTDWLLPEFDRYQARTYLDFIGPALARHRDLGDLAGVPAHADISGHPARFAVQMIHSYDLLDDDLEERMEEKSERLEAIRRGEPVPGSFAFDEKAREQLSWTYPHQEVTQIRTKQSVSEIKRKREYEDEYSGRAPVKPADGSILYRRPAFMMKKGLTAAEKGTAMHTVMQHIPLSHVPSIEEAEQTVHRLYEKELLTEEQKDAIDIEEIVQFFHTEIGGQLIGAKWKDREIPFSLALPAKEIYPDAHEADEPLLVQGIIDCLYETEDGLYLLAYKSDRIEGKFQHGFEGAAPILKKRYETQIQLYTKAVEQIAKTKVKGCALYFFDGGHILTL

[2] = biological target: T2, AddA (nuclease-dead);AddB (nuclease-dead) (Bacillus subtilis?;Bacillus subtilis?, UniProt P23478;P23477 1-1232;1-1166, D1172A|D961A)
[3] = biological target: T2, AddA (nuclease-dead);AddB …; remark: listed apart in the source

B1: AddB subunit of the nuclease-dead AddAB mutant (AddB D961A) (enzyme)
chain: MGAEFLVGRSGSGKTKLIINSIQDELRRAPFGKPIIFLVPDQMTFLMEYELAKTPDMGGMIRAQVFSFSRLAWRVLQHTGGMSRPFLTSTGVQMLLRKLIEEHKQEFKVYQKASDKSGFTAQVERMLTEFKRYCLEPEDIRRMAESGTASEYRGERVLSEKLHDLSILYQQMEKSLADQYLHSEDYLTLLAEHIPLAEDIKGAHIYVDGFYQFTPQEFRVLEQLMVHAEHITFSLTADKPSYEREPHELELFRMTGKTYYRLHQKAKELNLDITYKELSGTERHTKTPELAHLEAQYEARPAIPYAEKQEALTVMQAANRRAELEGIAREIHALVREKGYRYKDVAILARQPEDYKDMVKEVFADYEIPYFIDGKASMLNHPLIEFIRSSLDVLKGNWRYEAVFRCVKTELLFPLNEPKAKVREQVDQLENYCIAYGIKGDRWTKGDRFQYRRFVSLDDDFAQTDQEIEMENMLNDTRDWIVPPLFQLQKRMKKAKTVQEKAEALYRYLEETDVPLKLDQERQRAEDDGRIIEAQQHQQAWDAVIQLLEEFVEMMGDDEISLDLFQQMIEAGAESLTFSLIPPALDQVFVGNMDLSRMYGTSCTFVLGANDGVLPARPDENGVLSDDDREWLKTIGVELSSGGRERLLDEHFLIYMAFSSPSDRLYVSYPIADAEGKTLLPSMIVKRLEELFPHHKERLLTNEPEQVSDEEQLMYVVNKSVAQSFTASQLRLWTREYDISDVWWSTYNVLMSEQDRLQSKKLFSSLFFRNEVKQLERSVSRQLYGERIQGSVSRMETFNACPFSHFASHGLHLKERQFFKLEAPDIGQLFHSSLKLISDRLREQKLDWRDLTKEQCELFSYDAVERLAPKLQKEILLSSNRHYYVKEKLQKIVTRVSGILSEHAKASGFVPIGLELGFGGKGPLPPLTFQLKNGCTMELVGRIDRVDKAESSKGLLLRIVAYKSSDKGLDLAEVYYGLALQMLTYLDLSITHSADWLGMRATPAGVLYFHIHDPMIQSNLPLGLDEIEQEIFKKFKMKGLLLGDQEVVRLMDTTLQEGRSNIINAGLKKDGSLRSDSAAVGEKEFDLLTKHVRRTFQEAGEQITDGRVSIEPYKMKNKTPCTYCAFKSVCQFDESLEENEYRPLKAEKDKTILEWIKKEADGNEHS
Question: Does B1 bind [1]?
Answer: Result: binds

B2: oligo 023 (Chi, 6 T spacer) (structured_DNA)
DNA: TTTTTTTCTAATGCGAGCACTGCTATTCCCTAGCAGTGCTCGCATTAGATTTTGTTTTTTAGCGG
Question: Does B2 bind [2]?
Answer: Result: binds

B3: oligo 027 (Chi, 7 T spacer, TTTT 3' extension) (structured_DNA)
DNA: TTTTTTTCTAATGCGAGCACTGCTATTCCCTAGCAGTGCTCGCATTAGATTTTGTTTTTTTAGCGGTTTT
Question: Does B3 bind [3]?
Answer: Result: binds
